Results reported in patent publication US20200240995.
Where a chain is given by its changes, count along the chain named.

B1: Dealocase-1 (protein)
chain: KPRVLVLTGAGISAESGIRTFRAADGLWEEHRVEDVSTPEGFDRDPELVQAFWNAWRRQLQQPEIQPNAAHLALAKLQDALGDRFLLVTQNVDNLHERAGNTNVIHMHGELLKVRCSQSGQVLDWTGDVTPEDKCHCCQFPAPLRPHVVWFGEMPLGMDEIYMALSMADIFIAIGTSGHVYPAAGFVHEAKLHGAHTVELNLEPSQVGNEFAEKYYGPASQVVPEFVEKLLKGLKAGSIA
B2: Decrotonylase-1 (protein)
chain: B1 chain with S37R, W53G, W56T, V92R, V148L
B3: Dealocase-2 (protein)
chain: B1 chain with S37G, W53Y, W56G
B4: Debocylase-1 (protein)
chain: B1 chain with S37A, W53Y, W56R, V148L
B5: Dealocase-3 (protein)
chain: B1 chain with S37A, W53Y, W56R, V92S, V148L

Biological target: Dual luciferase reporter (DLR) with N(ε)-acetyl-lysine at K529 of the Firefly enzyme
Sequence (chain, as listed by the source): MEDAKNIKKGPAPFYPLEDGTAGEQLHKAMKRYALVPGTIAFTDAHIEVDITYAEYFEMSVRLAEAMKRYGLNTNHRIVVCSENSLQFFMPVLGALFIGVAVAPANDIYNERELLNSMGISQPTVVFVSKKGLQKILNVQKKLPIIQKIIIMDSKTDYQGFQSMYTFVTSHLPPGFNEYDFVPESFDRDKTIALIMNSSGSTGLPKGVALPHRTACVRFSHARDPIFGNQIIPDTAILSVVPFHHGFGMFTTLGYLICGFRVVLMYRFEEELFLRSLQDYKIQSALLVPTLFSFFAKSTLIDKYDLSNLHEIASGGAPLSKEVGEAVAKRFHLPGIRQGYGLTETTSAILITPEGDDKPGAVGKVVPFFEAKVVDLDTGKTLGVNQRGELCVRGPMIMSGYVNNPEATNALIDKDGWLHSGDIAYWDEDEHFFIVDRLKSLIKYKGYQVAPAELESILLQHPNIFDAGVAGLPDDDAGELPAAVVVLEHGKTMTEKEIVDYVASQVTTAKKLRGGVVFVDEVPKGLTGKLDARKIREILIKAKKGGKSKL

| Protein | DLR activity [rel. to wild-type] (rel. to wild-type) |
| --- | --- |
| B1 | 0.49 |
| B2 | 0 |
| B3 | 1.19 |
| B4 | 1.25 |
| B5 | 0.35 |

Biological target: Dual luciferase reporter (DLR) with N(ε)-allyl-oxycarbonyl-lysine at K529 of the Firefly enzyme
Sequence (chain, as listed by the source): as above

| Protein | DLR activity [rel. to wild-type] (rel. to wild-type) |
| --- | --- |
| B1 | 10.8 |
| B2 | 0.02 |
| B3 | 10.2 |
| B4 | 8.35 |
| B5 | 6 |

Biological target: Dual luciferase reporter (DLR) with N(ε)-crotonyl-lysine at K529 of the Firefly enzyme
Sequence (chain, as listed by the source): as above

| Protein | DLR activity [rel. to wild-type] (rel. to wild-type) |
| --- | --- |
| B1 | 5.73 |
| B2 | 0.1 |
| B3 | 2.11 |
| B4 | 2.9 |
| B5 | 1 |

Biological target: Dual luciferase reporter (DLR) with N(ε)-tert.-butyl-oxycarbonyl-lysine at K529 of the Firefly enzyme
Sequence (chain, as listed by the source): as above

| Protein | DLR activity [rel. to wild-type] (rel. to wild-type) |
| --- | --- |
| B1 | 2.88 |
| B2 | 0.04 |
| B3 | 0.77 |
| B4 | 8.65 |
| B5 | 0.65 |
